{"source": "patent US20090304724A1", "about": "(IPSEN PHARMA S A S, published 2009)"}
{"biological_target": "human growth hormone secretagogue receptor (human) (UniProt Q92847)", "sequence (Q92847 whole entry)": "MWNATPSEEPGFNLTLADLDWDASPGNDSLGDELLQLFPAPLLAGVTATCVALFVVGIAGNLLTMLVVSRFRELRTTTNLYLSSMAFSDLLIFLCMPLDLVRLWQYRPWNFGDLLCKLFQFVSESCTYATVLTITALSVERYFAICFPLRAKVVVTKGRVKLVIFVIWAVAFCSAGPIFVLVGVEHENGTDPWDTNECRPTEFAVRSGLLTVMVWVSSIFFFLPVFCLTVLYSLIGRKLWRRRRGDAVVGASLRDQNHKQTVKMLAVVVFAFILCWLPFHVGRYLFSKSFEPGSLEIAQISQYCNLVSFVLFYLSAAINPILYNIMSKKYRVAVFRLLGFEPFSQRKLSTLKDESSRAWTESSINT", "assay": "(125I)ghrelin displacement, hGHS-R CHO-K1 membranes", "units": {"Ki": "nM"}}
{"molecule": "H-Apc-D-Bal-D-2-Nal-Phe-Lys-NH2 (peptide)", "Ki": 0.68}
{"molecule": "H-Inp-D-Bal-D-Trp-Phe-Lys-NH2 (peptide)", "Ki": 0.33}
{"molecule": "H-Inp-D-Bal-D-Trp-Taz-Apc-NH2 (peptide)", "Ki": 0.83}
{"molecule": "H-Apc-D-1-Nal-D-Trp-Phe-NH2 (peptide)", "Ki": 0.7}
{"molecule": "H-Apc-D-Bal-D-Trp-Taz-Lys-NH2 (peptide)", "Ki": 0.5}
{"molecule": "H-Inp-D-Bal-D-Trp-2-Thi-Apc-NH2 (peptide)", "Ki": 0.4}
{"molecule": "H-Apc-D-1-Nal-D-Trp-Taz-NH2 (peptide)", "Ki": 1.41}
{"molecule": "H-Inp-D-Bal-D-Trp-Taz-Lys-NH2 (peptide)", "Ki": 0.52}
{"molecule": "H-Apc-D-Bal-D-Trp-2-Thi-Apc-NH2 (peptide)", "Ki": 0.51}
{"molecule": "H-Inp-D-2-Nal-D-Trp(Ψ)-Pim (peptide)", "Ki": 117}
{"molecule": "H-Inp-D-Bip-D-Trp-Phe-NH2 (peptide)", "Ki": 20}
{"molecule": "H-Apc-D-Bal-D-Trp-Phe-Apc-NH2 (peptide)", "Ki": 0.71}
{"molecule": "Inp-D-2-Nal-D-Trp-Phe-Lys-NH2 (peptide)", "Ki": 0.3}
{"molecule": "H-Inp-D-2-Nal-D-Trp-Taz-Lys-NH2 (peptide)", "Ki": 0.8}
{"biological_target": "T1, human growth hormone secretagogue receptor (human, UniProt Q92847 1-366)", "T1 construct": "whole, on cells; also called hGHS-R; ghrelin receptor", "T1 sequence (Q92847 whole entry)": "as above", "assay": "(125I)ghrelin displacement, hGHS-R CHO-K1 membranes", "units": {"Ki": "nM"}, "experimental": "Membranes for radioligand binding studies can be and were prepared by homogenization of the foregoing CHO-KL cells expressing the human recombinant GHS receptor. The cells were homogenized in 20 ml of ice-cold 50 mM Tris-HCl using a Brinkman Polytron® (Westbury, N.Y.; setting 6, 15 sec). The homogenates were washed twice by centrifugation (39,000 g/10 min) and the final pellets were resuspended in 50 mM Tris-HCl containing 2.5 mM MgCh and 0.1% bovine serum albumin (BSA). […] The filters were then washed three times with 5-ml aliquots of ice-cold 50 mM Tris-HCl and 0.1% BSA, and the bound radioactivity trapped on the filters was counted by gamma spectrometry (Wallac LKB, Gaithersburg, Md.)."}
{"molecule": "GSXFLSPEHQRVQQRKESKKPPAKLQPR (Glu(O-hexyl) 3; C-terminal amide)", "note": "[(Glu^3(O-hexyl))hGhrelin(1-28)-NH2]", "Ki": 0.5}
